The subject of series [1] is bovine capillary endothelial cell (BCE). To be noted: cited from earlier work; for inhibition of BCE proliferation: fragments of recombinant human plasminogen.
Series [2] relates to human umbilical vein endothelial cell (HUVEC). It is filed as cell-based. To be noted: 16 hours. Here is the method: The K1-3 used in this example has the sequence of SEQ ID NO.2. 2×10^5/ml HUVEC were inoculated in 12-well plates (Corning) and cultured in the M199 medium (Hyclone) containing 20% fetal bovine serum (Hyclone) to exponential phase. After starved for 12 hours, crossed wounds were created in each well. Suspending cells were washed away. Experimental groups were as follows: negative control (PBS), positive control (K1-3 at the concentration of 0.04, 0.4 and 4 μg/ml) and treatment group (K1-3 with PEG at the concentration of 0.04, 0.4 and 4 μg/ml). After culturing for 16 hours at 37° C., the amounts of migrated cells were detected. At the concentration of 0.04-4 μg/ml, the inhibitory effect of cell migration was improved with the increase of protein concentration.

The test system of series [3] is HeLa (human cervical cancer). The experiment in a line: proliferation of tumor cells (HeLa), MTT. To be noted: 48 hours; for concentration showing the highest anti-proliferation effect on tumor cells: among 0.4, 4, 40 and 150 μg/ml. It is filed as cell-based. Here is the method:
K1-3 used in this example is the K1-3 having the sequence of SEQ ID NO.2. Specifically, HeLa (ATCC#CCL-2, USA) were added into 96-well plates at 20,000 cells per well, then cultured in the DMEM medium (Hyclone) containing 10% serum to exponential phase. After starving for 12 hours, cells were treated with different concentrations of modified or unmodified K1-3 for measurement of cell proliferation. Experimental groups were as follows: negative control group (PBS), positive control groups (0.4, 4, 40, and 150 μg/ml K1-3), and treatment group (0.4, 4, 40, and 150 μg/ml K1-3 with PEG coupled to its N-terminus). After culturing for 48 hours at 37° C., the cells in the plates were treated with MTT for 4 h at 37° C. Then DMSO was added, and the absorption was measured at 570 nm by microplate spectrophotometer.

Series [4] is described as follows: in vivo half-life of K1-3 with or without PEG modification in Wistar rat. As for the experimental part:
The K1-3 used in this example has the sequence of SEQ ID NO.2. The efficacy of tK1-3 with PEG coupled to its N-terminus was evaluated by measuring the in vivo half-life of K1-3 with or without PEG modification in Wistar rat (Vitalriver Experimental Animal Center), respectively. Two healthy Wistar rat (about 200 g) were injected intraveniously with K1-3 and K1-3 modified with PEG, respectively, at a dose of 4.5 mg/kg body weight. Blood samples were taken from eye sockets of the rats at 0, 5, 10, 30 minutes, 1, 2, 4, 8, 16, 24, 36, 48, 72, 96, 120 and 144 hours. Plasma was then collected and the concentration of K1-3 with or without PEG modification was measured by sandwich ELISA, respectively.

The test system of series [5] is B16 melanoma. The series can be described thus: late-stage B16 melanoma mice tumor model. It counts as in vivo, C57B/L mice. To be noted: subcutaneous, tumor weight day 11. As for the experimental part: K1-3 used in this example is K1-3 having the sequence of SEQ ID NO.2. Experiments were performed to observe the in vivo inhibitory activity of K1-3 with PEG coupled to its N-terminus on late-stage B16 tumor. C57B/L mice of about 20 g were used in the experiment (Beijing Vital River Laboratory Animal Co. Ltd.). Mice were inoculated at back with B16 cells (ATCC#CRL-6475, USA), 1×10^6 cells per mouse. The mice were then randomly grouped after the tumor volume reaches 1 cm^3, 8 mice per group, including the negative control group (sodium acetate), the positive control group (K1-3, 4.5 mg/kg body weight, administered daily), three treatment groups (K1-3 with PEG coupled to its N-terminus, 1.5 mg/kg body weight, administered daily, or 4.5 mg/kg body weight, administered daily, every 3 days, every 6 days, or every 9 days, respectively). Administration was performed by subcutaneous injection and lasted for 10 days. The mice were sacrificed on day 11, the weight of tumor was measured, and the efficacy was evaluated by tumor inhibition rate.

Series [6] has as its system H22 hepatocellular carcinoma. The experiment in a line: early-stage H22 hepatocellular carcinoma mice tumor model. It is filed as in vivo, Balb/c mice. Conditions: subcutaneous, 3 weeks, tumor weight day 22. Here is the method:
K1-3 used in this example is K1-3 having the sequence of SEQ ID NO.2. Experiments were performed to observe the in vive inhibitory activity of K1-3 with PEG coupled to its N-terminus on early-stage H22 tumor. Balb/c mice of about 20 g were used in the experiment (Beijing Vital River Laboratory Animal Co. Ltd.). Mice were inoculated at back with H22 cells, 1×10^6 cells per mouse. The mice were then randomly grouped after the tumor volume reaches 1 cm^3, 8 mice per group, including the negative control group (sodium acetate), the positive control group (K1-3, 4.5 mg/kg body weight, administered daily), three treatment groups (K1-3 with PEG coupled to its N-terminus, 1.5 mg/kg body weight, administered daily, or 4.5 mg/kg body weight, administered daily, twice per week, or weekly, respectively). The administration was performed by subcutaneous injection and lasted for 3 weeks. The mice were sacrificed on day 22, the weight of tumor was measured, and the efficacy was evaluated by tumor inhibition rate. […] Since the in vivo half life of K1-3 with PEG coupled to its N-terminus are longer than that of unmodified K1-3 of the same dosage, the biological activity K1-3 with PEG coupled to its N-terminus is higher than that of the unmodified K1-3 of the same concentration when administration intervals are extended.

Series [7] relates to human umbilical vein endothelial cell (HUVEC). The experiment in a line: trans-well migration of HUVEC. To be noted: 8 hours. It is filed as cell-based. As for the experimental part: The K1-3 used in this example has the sequence of SEQ ID NO.2. HUVECs (Protgen, Beijing) were cultured in the M199 medium (Hyclone) containing 20% fetal bovine serum (Hyclone) to exponential phase. After starved for 12 hours, cells were added into trans-well inserts (Millipore, USA) at the concentration of 10,000 cells per well for measurement of cell migration. Mediums for migration assay included M199 medium with 5% serum. For the treatment groups, K1-3 with or without modification were added to the cells at 0.004, 0.04, 0.4 and 4 μg/ml. After culturing for 8 hours at 37° C., the cells in the trans-well inserts were fixed with 1% glutaraldehyde (Beijing chemical plant, China). […] The migrated cell number was counted under microscope (Olympus). Cells in three different fields in one plate treatment were counted and then the inhibition rate was calculated. At the concentration of 0.04-4 μg/ml, the inhibitory effect of cell migration improves with the increase of protein concentration.

The test system of series [8] is NCI-H226 NSCLC xenograft. The series can be described thus: NCI-H226 NSCLC xenograft model, tumor burden. It is filed as in vivo, Balb/c nu/nu mice. Conditions: for T/C ratio: PEG-K1-3 4.5 mg/kg i.v., Taxol 20 mg/kg i.v.
Experimental: Female Balb/c nu/nu mice aged 6-8 weeks of about 18-20 g weight (institute of laboratory animal sciences, CAMS) were used in this experiment. Mice were subcutaneously inoculated on the right side with NCI-H226 cells (human pancreatic cancer cell line, derived from ATCC, ATCC number CRL-5826). When the tumor volume reached about 80-125 mm^3, the animals were divide into 3 groups randomly (6 per group). […] The body weight and tumor volume of the animals were measured twice a week. Sacrifice the animals on day 28, collect the tumors and take photographs.
Setting [9] is: Wistar rat, injected intravenously, 4.5 mg/kg body weight, plasma, sandwich ELISA.
Where [10] appears, read: 4.5 mg/kg body weight daily, 10 days.

The values that follow come from patent US20140056966A1, “CONJUGATE ANGIOSTATION OR ITS FRAGMENT, THE METHOD OF PRODUCING THE CONJUGATE AND USE THEREOF” (PROTGEN LTD., priority 2007, published 2014).

Where two headings read alike, the source gives them in different places.

B1: K2: fragment of recombinant human plasminogen; angiostatin K2, SEQ ID NO:4 (protein, listed as Homo sapiens)
chain: CMHCSGENYDGKISKTMSGLECQAWDSQSPHAHGYIPSKFPNKNLKKNYCRNPDRELRPWCFTTDPNKRWELCDIPRC
B1: the “inhibition of BCE proliferation” value in series [1] was “effectively inhibit”.

B2: K1: fragment of recombinant human plasminogen; angiostatin K1, SEQ ID NO:3 (protein, listed as Homo sapiens)
chain: CKTGNGKNYRGTMSKTKNGITCQKWSSTSPHRPRFSPATHPSEGLEENYCRNPDNDPQGPWCYTTDPEKRYDYCDILEC
Turning to B2, in series [1], the “inhibition of BCE proliferation” value is “effectively inhibit”.

B3: K3: fragment of recombinant human plasminogen; angiostatin K3, SEQ ID NO:5 (protein, listed as Homo sapiens)
chain: CLKGTGENYRGNVAVTVSGHTCQHWSAQTPHTHNRTPENFPCKNLDENYCRNPDGKRAPWCHTTNSQVRWEYCKIPSC
With B3, the “inhibition of BCE proliferation” value in series [1] is “effectively inhibit”.

B4: K1-3: angiostatin fragment K1-3 (fragment of plasminogen), recombinant, sequence of SEQ ID NO.2, expressed in E. coli (protein, listed as Homo sapiens)
chain: MVYLSECKTGNGKNYRGTMSKTKNGITCQKWSSTSPHRPRFSPATHPSEGLEENYCRNPDNDPQGPWCYTTDPEKRYDYCDILECEEECMHCSGENYDGKISKTMSGLECQAWDSQSPHAHGYIPSKFPNKNLKKNYCRNPDRELRPWCFTTDPNKRWELCDIPRCTTPPPSSGPTYQCLKGTGENYRGNVAVTVSGHTCQHWSAQTPHTHNRTPENFPCKNLDENYCRNPDGKRAPWCHTTNSQVRWEYCKIPSCDSSP
For orientation: half-life means how long it takes for the measured level to halve. A low value points to fast loss. Turning to B4, the “inhibition rate on cells migration (wound healing)” value in series [2] (0.04 μg/ml) is given as 0%; in series [2] (0.4 μg/ml), 20%; in series [2] (4 μg/ml) it was 25%. Also, the “concentration showing the highest anti-proliferation effect on tumor cells” value in series [3] came out at 40 µg/mL. The molecule also yielded a half-life in series [4] (setting [9]) of 12.2 h. The figures for the tumor inhibition rate in series [5] (setting [10]) and in series [6] (4.5 mg/kg body weight daily) were 45% and 51%, respectively. Further, the “inhibitory effect on cell proliferation compared with angiostatin K1-4” value in series [1] was “significantly stronger”. Further, in series [1], the “inhibition of BCE proliferation” value is given as “effectively inhibit”. The “inhibition rate on cells migration” value in series [7] (0.04 μg/ml) stood at 43%; in series [7] (0.4 μg/ml), 68%; in series [7] (4 μg/ml) it was 76%.

B5: PEG-K1-3: K1-3 having the sequence of SEQ ID NO:2 modified with 20 kDa PEG at the N-terminal α-amino group (conjugate, listed as Homo sapiens)
chain: B4 chain
modifications: 20 kDa PEG at N-terminus
Regarding B5, the “tumor burden compared with the control group” value in series [8] (4.5 mg/kg i.v., p<0.05) was “significantly decreased”. Further, the T/C ratio in series [8] (Day 4) is on record as 73%; in series [8] (Day 11) it was 63%; in series [8] (Day 18), 62%; in series [8] (Day 25), 66%. Also, the tumor inhibition rate in series [8] (tumor burden 21 days after treatment, vs control group, PEG-K1-3 4.5 mg/kg, Taxol 20 mg/kg) turned out to be 17.18%; in series [5] (1.5 mg/kg body weight daily, 10 days), 28%; in series [5] (setting [10]), 60%; in series [5] (4.5 mg/kg body weight every 3 days), 34%; in series [5] (4.5 mg/kg body weight every 6 days) it was 25%; in series [5] (4.5 mg/kg body weight every 9 days), 24%. Further, the tumor inhibition rate in series [6] (1.5 mg/kg body weight daily) worked out at 54%; in series [6] (4.5 mg/kg body weight daily) it was 60%; in series [6] (4.5 mg/kg body weight weekly) it was 50%. Moreover, the “inhibition rate on cells migration (wound healing)” value turned out to be 35% in series [2] (0.04 μg/ml), 40% in series [2] (0.4 μg/ml) and 105% in series [2] (4 μg/ml). In series [3] (0.4-150 μg/ml), the “inhibition of the tumor cell proliferation compared with unmodified K1-3” value is on record as “more potent than unmodified K1-3”. Also, in series [3], the “concentration showing the highest anti-proliferation effect on tumor cells” value amounted to 40 µg/mL. For the same molecule, the half-life in series [4] (setting [9]) amounted to 81.5 h; in series [4] (summary statement, refers to example 4), 81.5 h. In addition, the “inhibition rate on cells migration” value is listed as 58% in series [7] (0.04 μg/ml), 65% in series [7] (0.4 μg/ml) and 69% in series [7] (4 μg/ml).
